Test results from publication PMC5570508.

Legend:
Assay in all cases: fluorescence polarisation; titration: 5-FAM-labeled protein at 0.5 or 1 μM titrated with unlabeled protein; 20°C; analysis buffer (20 mM NaH2PO4, 50 mM NaCl, 1 mM DTT pH 7); single site binding model
[1] = molecular target: PfEMP1 ATS of variant PFF0845c, fluorescently labeled (H159C) (P. falciparum)
[2] = molecular target: KAHRP K2, fluorescently labeled (C414A/C450A) (P. falciparum)
[3] = molecular target: PfEMP1 Acidic Terminal Segment (ATS) of variant PF08_0141, fluorescently labeled (Q150C) (P. falciparum)

spectrin β chain domains 10–14, sequence (P11277 1272-1804): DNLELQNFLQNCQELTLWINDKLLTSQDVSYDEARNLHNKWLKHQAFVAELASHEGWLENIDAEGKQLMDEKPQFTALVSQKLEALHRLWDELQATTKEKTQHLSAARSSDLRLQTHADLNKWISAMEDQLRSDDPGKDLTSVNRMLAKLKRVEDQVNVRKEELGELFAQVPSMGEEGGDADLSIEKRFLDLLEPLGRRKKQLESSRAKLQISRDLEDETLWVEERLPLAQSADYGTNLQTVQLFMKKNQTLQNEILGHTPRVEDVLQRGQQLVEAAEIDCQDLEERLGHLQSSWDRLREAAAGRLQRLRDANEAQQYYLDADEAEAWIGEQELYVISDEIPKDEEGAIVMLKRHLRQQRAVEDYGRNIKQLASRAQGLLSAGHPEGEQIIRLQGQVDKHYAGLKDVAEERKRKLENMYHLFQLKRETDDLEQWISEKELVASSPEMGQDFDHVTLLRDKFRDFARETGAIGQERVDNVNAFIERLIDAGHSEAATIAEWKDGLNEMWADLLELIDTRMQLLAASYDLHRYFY
spectrin α chain domains 12–16, sequence (P02549 1174-1716): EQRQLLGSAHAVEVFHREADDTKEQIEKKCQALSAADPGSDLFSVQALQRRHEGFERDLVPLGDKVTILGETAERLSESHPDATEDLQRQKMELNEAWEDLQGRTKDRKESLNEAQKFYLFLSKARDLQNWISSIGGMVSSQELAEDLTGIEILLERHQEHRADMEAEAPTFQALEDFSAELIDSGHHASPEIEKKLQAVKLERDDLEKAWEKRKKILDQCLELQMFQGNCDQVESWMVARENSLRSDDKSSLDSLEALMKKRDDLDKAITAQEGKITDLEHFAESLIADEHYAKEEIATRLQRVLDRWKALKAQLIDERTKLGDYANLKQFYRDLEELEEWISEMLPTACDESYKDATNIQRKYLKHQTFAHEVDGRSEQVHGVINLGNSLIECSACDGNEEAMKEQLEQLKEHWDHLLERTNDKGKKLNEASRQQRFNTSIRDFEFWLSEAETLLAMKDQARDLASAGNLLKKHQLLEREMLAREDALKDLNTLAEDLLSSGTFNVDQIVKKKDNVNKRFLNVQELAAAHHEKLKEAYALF
spectrin α chain domain 17, sequence (P02549 1704-1828): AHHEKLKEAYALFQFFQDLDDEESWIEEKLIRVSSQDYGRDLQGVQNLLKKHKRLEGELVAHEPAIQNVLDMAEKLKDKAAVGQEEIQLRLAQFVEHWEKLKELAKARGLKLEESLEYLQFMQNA
α spectrin construct spanning domains 17 to the protein C-terminus, sequence (P02549 1704-2395): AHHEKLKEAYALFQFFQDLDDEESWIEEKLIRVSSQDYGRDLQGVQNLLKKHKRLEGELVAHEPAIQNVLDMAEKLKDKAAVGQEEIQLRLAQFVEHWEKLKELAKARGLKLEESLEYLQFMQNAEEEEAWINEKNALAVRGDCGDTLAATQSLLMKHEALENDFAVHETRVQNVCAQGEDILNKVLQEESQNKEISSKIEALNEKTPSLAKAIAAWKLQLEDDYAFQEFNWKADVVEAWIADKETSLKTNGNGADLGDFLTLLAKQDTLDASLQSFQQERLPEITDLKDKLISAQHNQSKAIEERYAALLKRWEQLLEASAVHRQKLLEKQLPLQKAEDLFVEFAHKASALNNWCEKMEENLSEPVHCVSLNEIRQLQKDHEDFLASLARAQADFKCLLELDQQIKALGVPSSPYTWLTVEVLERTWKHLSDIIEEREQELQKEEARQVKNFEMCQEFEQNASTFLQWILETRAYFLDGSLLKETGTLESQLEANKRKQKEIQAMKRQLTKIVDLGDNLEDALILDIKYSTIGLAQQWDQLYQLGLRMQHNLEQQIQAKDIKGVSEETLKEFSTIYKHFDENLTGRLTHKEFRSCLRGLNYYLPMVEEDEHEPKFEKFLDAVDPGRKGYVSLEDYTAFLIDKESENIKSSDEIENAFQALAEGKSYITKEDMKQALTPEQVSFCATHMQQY

Substance	Kd [2]	also measured
spectrin α chain domain 17 (from UniProt P02549 1704-1828) (domain or fragment)		Kd [1]: 24 µM
spectrin α chain domains 12–16 (from UniProt P02549 1174-1716) (domain or fragment)	160 µM	
spectrin β chain domains 10–14 (from UniProt P11277 1272-1804) (domain or fragment)	50 µM	
α spectrin construct spanning domains 17 to the protein C-terminus (from UniProt P02549 1704-2395) (domain or fragment)		Kd [3]: 59 µM
